Results from article PMC4434771.

Biological target: human neonatal Fc receptor (FcRn), heterodimer of alpha-FcRn and beta2 microglobulin (human) (UniProt P55899)
Assay: SPR

Row | Rel. KD (KD normalised to the KD of ustekinumab) | Substance
1 | 1 | mAb 1 (ustekinumab Fv + briakinumab constant domains) (antibody)
2 | 0.9 | mAb 5 (ustekinumab CDRs on briakinumab) (antibody)

Biological target: human neonatal Fc receptor (FcRn), heterodimer of alpha-FcRn and beta2 microglobulin (human) (UniProt P55899)
Assay: FcRn affinity chromatography

Row | FcRn column retention time | FcRn column elution pH | Substance
3 | 85.7 min |  | IdeS-cleaved Fc region of briakinumab (domain or fragment)
4 | 85.2 min |  | IdeS-cleaved Fc region of ustekinumab (domain or fragment)
5 | 93.7 min | 7.9 pH | briakinumab (antibody)
6 | 84.3 min |  | mAb 1 (ustekinumab Fv + briakinumab constant domains) (antibody)
7 | 92.4 min |  | mAb 3 (ustekinumab HC + briakinumab LC) (from UniProt P01857 2-107) (antibody)
8 | 85.1 min |  | mAb 5 (ustekinumab CDRs on briakinumab) (antibody)
